Measured values as given in patent US20220213211A1 (Memorial Sloan Kettering, published 2022).

Target: T1, biotinylated recombinant CD371 (soluble CD371) (Homo sapiens (Human), UniProt Q5QGZ9 65-265, biotinylated (site not stated))
T1 sequence: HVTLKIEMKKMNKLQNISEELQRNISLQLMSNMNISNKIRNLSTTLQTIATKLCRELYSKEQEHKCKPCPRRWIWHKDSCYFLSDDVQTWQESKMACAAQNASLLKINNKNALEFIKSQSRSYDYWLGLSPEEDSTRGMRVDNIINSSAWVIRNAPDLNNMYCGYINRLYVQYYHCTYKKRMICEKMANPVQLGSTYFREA
Assay: biotinylated CD371 captured with streptavidin, soluble scFv as analyte
Description: For scFv affinity measurements, biotinylated CD371 was captured with streptavidin, and soluble scFv was used as analyte. […] Consistent with the flow cytometry results, weak binding of the 1B10 scFv in the VH-VL orientation was observed but a dissociation constant could not be calculated by any curve fit method.

Kd: 16 nM | koff: 0.00952 s⁻¹ | kon: 599000 M⁻¹ s⁻¹
B1: B10 scFv in the VL-VH orientation (scFv)
scFv: DIVMTQSPDSLAVSLGERATINCKSSQSVLDSYNNENNLAWYQQKPGQPPKLLIYWASTRESGVPDRFSGSGSGTDFTLTISSLQAEDVAVYYCQQYTSEPITFGQGTKVEIKGGGGSGGGGSGGGSGGGGSEVQLLESGGGLVQPGGSLRLSCAASGFTFSDYQMSWVRQAPGKGLEWVSGIQGGGGSTYYADSVKGRFTISRDNSKNTLYLQMNSLRAEDTAVYYCAREMWRGDYYSGMDVWGQGTTVTVSS
notes: also called 1B10 scFv VL-VH; VL-VH scFv
